Earlier results on 1 substance are cited in PMC4666935.

For data set [1], the target named is uPA-PAI-1 complex (Homo sapiens) (UniProt P00749).
The target in another data set is PAI-1 (Homo sapiens) (UniProt P05121).
PAI-1 (Homo sapiens), sequence (P05121 24-402): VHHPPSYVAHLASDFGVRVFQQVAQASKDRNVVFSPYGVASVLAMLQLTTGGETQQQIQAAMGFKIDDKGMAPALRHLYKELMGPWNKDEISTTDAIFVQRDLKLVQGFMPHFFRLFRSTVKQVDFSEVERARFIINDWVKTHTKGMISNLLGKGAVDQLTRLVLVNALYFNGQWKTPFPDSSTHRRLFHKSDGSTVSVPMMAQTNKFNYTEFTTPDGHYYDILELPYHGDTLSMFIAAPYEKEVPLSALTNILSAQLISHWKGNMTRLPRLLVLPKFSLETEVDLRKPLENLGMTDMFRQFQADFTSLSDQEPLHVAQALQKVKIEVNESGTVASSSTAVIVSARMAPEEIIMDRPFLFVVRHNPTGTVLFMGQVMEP

vasoinhibin, sequence (P01236 29-227): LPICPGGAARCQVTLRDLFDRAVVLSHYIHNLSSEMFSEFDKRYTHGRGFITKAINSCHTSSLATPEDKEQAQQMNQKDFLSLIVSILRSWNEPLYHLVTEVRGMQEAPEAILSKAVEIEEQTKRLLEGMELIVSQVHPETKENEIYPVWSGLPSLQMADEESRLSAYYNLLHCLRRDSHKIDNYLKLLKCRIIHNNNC
uPA-PAI-1 complex (Homo sapiens), sequence (P05121 24-402, chain 2 of 2, other chains not shown): as the sequence (P05121 24-402) above

As for vasoinhibin (from UniProt P01236), the Kd in data set [1] is 500 nM; with PAI-1 (Homo sapiens), 1000 nM.
